Experimental data as given in patent US20200131524.

Biological target: T1, 3XHA-LEC2 (Arabidopsis LEAFY COTYLEDON 2, CDS in PB7HA 35S vector), Q1PFR7
T1 chain: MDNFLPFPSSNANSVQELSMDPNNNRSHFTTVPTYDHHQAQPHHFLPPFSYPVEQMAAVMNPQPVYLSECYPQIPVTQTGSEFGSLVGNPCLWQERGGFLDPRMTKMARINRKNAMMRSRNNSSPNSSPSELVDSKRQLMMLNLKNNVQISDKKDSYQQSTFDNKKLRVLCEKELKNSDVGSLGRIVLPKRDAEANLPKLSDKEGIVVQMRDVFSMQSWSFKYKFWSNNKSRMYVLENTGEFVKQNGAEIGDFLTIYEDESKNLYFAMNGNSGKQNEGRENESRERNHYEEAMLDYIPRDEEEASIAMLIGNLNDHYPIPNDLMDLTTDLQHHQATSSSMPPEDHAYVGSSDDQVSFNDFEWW

B1: 3xFLAG-UPL3 (Arabidopsis UBIQUITIN PROTEIN LIGASE 3, CDS in PW1266 35S vector) (protein)
chain: METRSRKRAEATSAAPSSSSSSPPPPPSASGPTTRSKRARLSSSSSSSLAPTPPSSSTTTRSRSSRSAAAAAPMDTSTDSSGFRRGGRGNRGNNNDNSDKGKEKEHDVRIRERERERDRAREQLNMDAAAAAARSADEDDDNDSEDGNGGFMHPNMSSASSALQGLLRKLGAGLDDLLPSSGIGSASSSHLNGRMKKILSGLRAEGEEGKQVEALTQLCEMLSIGTEDSLSTFSVDSFVPVLVGLLNHESNPDIMLLAARALTHLCDVLPSSCAAVVHYGAVSCLVARLLTIEYMDLAEQSLQALKKISQEHPTACLRAGALMAVLSYLDFFSTGVQRVALSTAANMCKKLPSDASDYVMEAVPLLTNLLQYHDSKVLEYASICLTRIAEAFAPYPEKLDELCNHGLVTQAASLISTSNSGGGQASLSVSTYTGLIRLLSTCASGSPLGFRTLLLLGISSILKDILLGSGVSANASVSPALSRPADQIYEIVNLANELLPPLPEGVISLPTSTNALVKGSCQKKSSPSTSGKQEDILKISPREKLLGDQPELLQQFGLDLLPVLVQIYGSSVNGTIRHKCLSVIGKLMYFSSSEMIQSLIGDTNISSFLAGVLAWKDPQVLVPALQVAEILMEKLPETFSKVFVREGVVHAVDQLVLVGKPSHASPTDKDNDCVPGSARSRRYRRRSSNANSDGNQSEEPKNPASLTIGANHNSLDTPTASFMLRETVSSCAKAFKDKYFPSDGGDVDVGVTDDLLHLKNLCTKLTAGIDDHKVKGKGKSKASGPFLGDFSASKEEYLIGVISEILGEISKGDGVSTFEFIGSGVVAALLNYFSCGYFSKEKISELNLPKLRQEGLRRFKAFLEVALPFDGNEGKVPPMTVLIQKLQNALSSLERFPVVLSHPSRSLSGSARLSSGLSALAHPLKLRLCRASGEKTLRDYSSNIVLIDPLASLAAVEEFLWPRVQRSESALKPAAPIGNTEPGTLPSGAGVSSPSSSTPASTTRRHSSRSRSAINIGDTSKKDPVHEKGTSSSKGKGKGVMKPAQADKGPQTRSNAQKRAVLDKDTQMKPASGDSSSEDEELEISPVDIDDALVIEEDDISDDEDDDNEDVLDDSLPMCTPDKVHDVKLADSVDDDGLATSGRQMNPASGGTSGAAAARASDSIDTGIGNSYGSRGALSFAAAAMAGLGAASGRGIRGSRDLHGRTLNRSSDEPSKLIFTAAGKQLSRHLTIYQAVQRQLMLDEDDDDRFGGSDLVSSDGSRFNDIYTIMYQRPDSQVNRLSVGGASSTTPSKSTKSATTNSSVESQSHRASLLDSILQGELPCDLEKSNSTYNVLALLRVLEGLNQLCPRLRAQTLSDRFAEGKITSLDDLSTTAAKVPLDEFVNSKLTPKLARQIQDALALCSGSLPSWCYQLTRACPFLFPFQTRRQYFYSTAFGLSRALNRLQQQQGADGSGSTNEREMRIGRLQRQKVRVSRNRILDSAAKVMEMYSSQKAVLEVEYFGEVGTGLGPTLEFYTLLSHDLQKASLGMWRSSSGDKVSMQIGRDEIEDGKPSAANRDIVLAPLGLFPRPWPSTADISEGGQFHKVIEYFRLLGRVMAKALQDGRLLDVPLSTAFYKLILGQELDLHDIVLFDAELGKTLQELRVVVARKHYLEGVGGDNSSTISDLCLRGCRIEDLSLEFTLPGYPEYILRSGDEIVDITNLEEYISLVVDATVKRGVTRQIEAFRSGFNQVFDITSLQIFTPSELDYLLCGRRELWEVETLAEHIKFDHGYNAKSPAIINLLEIMGELTADQQRAFCQFVTGAPRLPPGGLAVLNPKLTIVRKHSSTSSAAANGAGASETADDDLPSVMTCANYLKLPPYSTKEIMYKKLLYAINEGQGSFDLS
ubiquitylation of LEC2 (HA immunoprecipitation and immunoblot after co-expression in Nicotiana benthamiana): when co-expressed with 3xFLAG-UPL3, 3XHA-LEC2 ubiquitylation appears enhanced
